# Where a chain is given by its changes, count along the chain named. Names may count otherwise.
# B1: Id_ii_S2_P4E.3_K4.2_C4.2_[C-2A]_[T-1C]_H4.2_A4.1_F4.1_T4.2_[G10T] (ssRNA)
# RNA: UUUGAUUAAUAUGAUAUCGUUCUUUCUACUAUAUAUUAUUUUCUUUCUCGAUAUCAUAUUAAUCUUU
# B2: Id_ii_S2_P4E.3_K4.2_C4.2_[C-2A]_H4.2_A4.1_F4.1_T4.2_[G10T]_[T11G] (ssRNA)
# RNA: B1 RNA with C29U, U40G
# B3: Id_ii_S2_P4E.4_K4.3_C4.2_[C-2G]_[T-1C]_H4.3_A4.1_F4.1_T4.2_[G10A]_[T11A] (ssRNA)
# RNA: B1 RNA with A28G, U30A, A31C, U32A, A33C, U39A, U40A
# B4: Id_ii_S2_P4E.3_K4.2_C4.2_[C-2A]_H4.2_A4.1_F4.1_T4.2_[G10C] (ssRNA)
# RNA: B1 RNA with C29U, U39C
# B5: Id_ii_S2_P4E.3_K4.2_C4.2_[C-2A]_[T-1C]_H4.2_A4.1_F4.1_T4.2_[G10A]_[T11A] (ssRNA)
# RNA: B1 RNA with U39A, U40A
# B6: Id_ii_S2_P4E.3_K4.2_C4.2_[T-1G]_H4.2_A4.1_F4.1_T4.2_[G10A]_[T11G] (ssRNA)
# RNA: B1 RNA with A28C, C29G, U39A, U40G
# B7: Id_ii_S2_P4E.3_K4.2_C4.2_H4.2_A4.1_F4.1_T4.2_[T11C] (ssRNA)
# RNA: B1 RNA with A28C, C29U, U39G, U40C
# B8: Id_ii_S2_P4E.3_K4.2_C4.2_[T-1A]_H4.2_A4.1_F4.1_T4.2_[G10A]_[T11A] (ssRNA)
# RNA: B1 RNA with A28C, C29A, U39A, U40A
# B9: Id_ii_S2_P4E.3_K4.2_C4.2_[C-2A]_H4.2_A4.1_F4.1_T4.2_[G10A]_[T11C] (ssRNA)
# RNA: B1 RNA with C29U, U39A, U40C
# B10: Id_ii_S2_P4E.3_K4.2_C4.2_H4.2_A4.1_F4.1_T4.2_[G10T] (ssRNA)
# RNA: B1 RNA with A28C, C29U
# B11: Id_ii_S2_P4E.3_K4.2_C4.2_H4.2_A4.1_F4.1_T4.2_[G10A]_[T11C] (ssRNA)
# RNA: B1 RNA with A28C, C29U, U39A, U40C
# B12: Id_ii_S2_P4E.3_K4.2_C4.2_[T-1G]_H4.2_A4.1_F4.1_T4.2_[G10A]_[T11C] (ssRNA)
# RNA: B1 RNA with A28C, C29G, U39A, U40C
# B13: Id_ii_S2_P4E.3_K4.2_C4.2_[T-1A]_H4.2_A4.1_F4.1_T4.2_[T11G] (ssRNA)
# RNA: B1 RNA with A28C, C29A, U39G, U40G
# B14: Id_ii_S2_P4E.3_K4.2_C4.2_[T-1C]_H4.2_A4.1_F4.1_T4.2_[G10C]_[T11G] (ssRNA)
# RNA: B1 RNA with A28C, U39C, U40G
# B15: Id_ii_S2_P4E.3_K4.2_C4.2_[C-2A]_H4.2_A4.1_F4.1_T4.2_[G10C]_[T11C] (ssRNA)
# RNA: B1 RNA with C29U, U39C, U40C
# B16: Id_ii_S2_P4E.3_K4.2_C4.2_[T-1A]_H4.2_A4.1_F4.1_T4.2_[G10A]_[T11G] (ssRNA)
# RNA: B1 RNA with A28C, C29A, U39A, U40G
# B17: Id_ii_S2_P4E.3_K4.2_C4.2_[T-1A]_H4.2_A4.1_F4.1_T4.2_[G10A] (ssRNA)
# RNA: B1 RNA with A28C, C29A, U39A
# B18: Id_ii_S2_P4E.3_K4.2_C4.2_[C-2A]_[T-1A]_H4.2_A4.1_F4.1_T4.2_[G10C]_[T11A] (ssRNA)
# RNA: B1 RNA with C29A, U39C, U40A
# B19: Id_ii_S2_P4E.3_K4.2_C4.2_[T-1A]_H4.2_A4.1_F4.1_T4.2_[G10C]_[T11A] (ssRNA)
# RNA: B1 RNA with A28C, C29A, U39C, U40A
# B20: Id_ii_S2_P4E.3_K4.2_C4.2_[T-1C]_H4.2_A4.1_F4.1_T4.2_[G10T] (ssRNA)
# RNA: B1 RNA with A28C
# B21: Id_ii_S2_P4E.3_K4.2_C4.2_H4.2_A4.1_F4.1_T4.2_[G10A] (ssRNA)
# RNA: B1 RNA with A28C, C29U, U39A
# B22: Id_ii_S2_P4E.3_K4.2_C4.2_[C-2A]_H4.2_A4.1_F4.1_T4.2_[G10T]_[T11C] (ssRNA)
# RNA: B1 RNA with C29U, U40C
# B23: Id_ii_S2_P4E.3_K4.2_C4.2_[T-1C]_H4.2_A4.1_F4.1_T4.2_[G10T]_[T11A] (ssRNA)
# RNA: B1 RNA with A28C, U40A
# B24: Id_ii_S2_P4E.3_K4.2_C4.2_[T-1A]_H4.2_A4.1_F4.1_T4.2 (ssRNA)
# RNA: B1 RNA with A28C, C29A, U39G
# B25: Id_ii_S2_P4E.3_K4.2_C4.2_[C-2A]_[T-1A]_H4.2_A4.1_F4.1_T4.2_[G10C] (ssRNA)
# RNA: B1 RNA with C29A, U39C
# B26: Id_ii_S2_P4E.3_K4.2_C4.2_[C-2A]_[T-1A]_H4.2_A4.1_F4.1_T4.2_[G10T] (ssRNA)
# RNA: B1 RNA with C29A
# B27: Id_ii_S2_P4E.3_K4.2_C4.2_[T-1G]_H4.2_A4.1_F4.1_T4.2_[G10A]_[T11A] (ssRNA)
# RNA: B1 RNA with A28C, C29G, U39A, U40A
# B28: Id_ii_S2_P4E.3_K4.2_C4.2_[T-1A]_H4.2_A4.1_F4.1_T4.2_[G10A]_[T11C] (ssRNA)
# RNA: B1 RNA with A28C, C29A, U39A, U40C
# B29: Id_ii_S2_P4E.3_K4.2_C4.2_[T-1A]_H4.2_A4.1_F4.1_T4.2_[G10C]_[T11C] (ssRNA)
# RNA: B1 RNA with A28C, C29A, U39C, U40C
# B30: Id_ii_S2_P4E.3_K4.2_C4.2_[T-1G]_H4.2_A4.1_F4.1_T4.2_[G10T] (ssRNA)
# RNA: B1 RNA with A28C, C29G
# B31: Id_ii_S2_P4E.3_K4.2_C4.2_[C-2A]_H4.2_A4.1_F4.1_T4.2_[G10C]_[T11A] (ssRNA)
# RNA: B1 RNA with C29U, U39C, U40A
# B32: Id_ii_S2_P4E.3_K4.2_C4.2_[C-2A]_H4.2_A4.1_F4.1_T4.2_[G10C]_[T11G] (ssRNA)
# RNA: B1 RNA with C29U, U39C, U40G
# B33: Id_ii_S2_P4E.3_K4.2_C4.2_H4.2_A4.1_F4.1_T4.2_[G10C]_[T11G] (ssRNA)
# RNA: B1 RNA with A28C, C29U, U39C, U40G
# B34: Id_ii_S2_P4E.3_K4.2_C4.2_[C-2A]_[T-1A]_H4.2_A4.1_F4.1_T4.2_[G10A]_[T11G] (ssRNA)
# RNA: B1 RNA with C29A, U39A, U40G
# B35: Id_ii_S2_P4E.3_K4.2_C4.2_H4.2_A4.1_F4.1_T4.2_[G10T]_[T11C] (ssRNA)
# RNA: B1 RNA with A28C, C29U, U40C
# B36: Id_ii_S2_P4E.3_K4.2_C4.2_[T-1A]_H4.2_A4.1_F4.1_T4.2_[G10C] (ssRNA)
# RNA: B1 RNA with A28C, C29A, U39C
# B37: Id_ii_S2_P4E.3_K4.2_C4.2_[C-2A]_[T-1C]_H4.2_A4.1_F4.1_T4.2_[G10A] (ssRNA)
# RNA: B1 RNA with U39A
# B38: Id_ii_S2_P4E.3_K4.2_C4.2_H4.2_A4.1_F4.1_T4.2_[G10C]_[T11A] (ssRNA)
# RNA: B1 RNA with A28C, C29U, U39C, U40A
# B39: Id_ii_S2_P4E.3_K4.2_C4.2_[T-1C]_H4.2_A4.1_F4.1_T4.2_[G10C]_[T11A] (ssRNA)
# RNA: B1 RNA with A28C, U39C, U40A
# B40: Id_ii_S2_P4E.3_K4.2_C4.2_[C-2A]_[T-1A]_H4.2_A4.1_F4.1_T4.2_[G10A]_[T11A] (ssRNA)
# RNA: B1 RNA with C29A, U39A, U40A
# B41: Id_ii_S2_P4E.3_K4.2_C4.2_[T-1A]_H4.2_A4.1_F4.1_T4.2_[G10T] (ssRNA)
# RNA: B1 RNA with A28C, C29A
# B42: Id_ii_S2_P4E.3_K4.2_C4.2_[C-2A]_[T-1A]_H4.2_A4.1_F4.1_T4.2_[G10C]_[T11C] (ssRNA)
# RNA: B1 RNA with C29A, U39C, U40C
# B43: Id_ii_S2_P4E.3_K4.2_C4.2_[C-2A]_[T-1C]_H4.2_A4.1_F4.1_T4.2_[G10A]_[T11C] (ssRNA)
# RNA: B1 RNA with U39A, U40C
# B44: Id_ii_S2_P4E.3_K4.2_C4.2_[T-1C]_H4.2_A4.1_F4.1_T4.2_[G10T]_[T11G] (ssRNA)
# RNA: B1 RNA with A28C, U40G
# B45: Id_ii_S2_P4E.3_K4.2_C4.2_[T-1C]_H4.2_A4.1_F4.1_T4.2_[G10A] (ssRNA)
# RNA: B1 RNA with A28C, U39A
# B46: Id_ii_S2_P4E.3_K4.2_C4.2_[T-1C]_H4.2_A4.1_F4.1_T4.2_[G10A]_[T11A] (ssRNA)
# RNA: B1 RNA with A28C, U39A, U40A
# B47: If_S2_P4E.3_K4.2_C4.2_H4.2_A4.1_F4.1_T4.2 (ssRNA)
# RNA: B1 RNA with A28C, C29U, U39G
# B48: Id_ii_S2_P4E.3_K4.2_C4.2_[T-1A]_H4.2_A4.1_F4.1_T4.2_[G10C]_[T11G] (ssRNA)
# RNA: B1 RNA with A28C, C29A, U39C, U40G
# Biological target: T1, PUF4 RNA-binding domain (Saccharomyces cerevisiae, UniProt P25339 537-888)
# T1 sequence: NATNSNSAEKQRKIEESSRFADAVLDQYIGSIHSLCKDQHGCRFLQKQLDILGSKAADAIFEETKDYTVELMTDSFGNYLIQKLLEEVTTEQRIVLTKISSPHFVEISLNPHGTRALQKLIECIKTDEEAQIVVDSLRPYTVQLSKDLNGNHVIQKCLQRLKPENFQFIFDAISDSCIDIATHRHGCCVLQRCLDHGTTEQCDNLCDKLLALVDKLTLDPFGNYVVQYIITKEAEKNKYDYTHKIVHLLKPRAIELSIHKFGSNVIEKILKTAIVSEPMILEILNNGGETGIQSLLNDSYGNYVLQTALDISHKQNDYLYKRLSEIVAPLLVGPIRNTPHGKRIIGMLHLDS
# Test: Mg; RNA-MaP; 20 mM Na-HEPES pH 7.4, 30 mM KOAc, 0.75 mM MgCl2, 0.1% Tween-20, 5% glycerol, 0.1 mg/mL BSA, 2 mM DTT; 25 C; 0.0125-409.6 nM protein
# Settings: tags: N-His6-TEV cleaved; C-SNAP kept, Cy3B-labelled; label: tethered on chip by stalled RNA polymerase
row,Binder,Kd [µM]
1,UCUCUUUGUCUUAUUUUCUCUU (ssRNA) [Ib_S1_P5E.1_K5.1_C5.1_H5.1_[A4C]_A5.1_F5.1_[A10T]_T5.1],0.775
2,B1,0.00744
3,B2,0.0261
4,B3,0.0236
5,B4,0.0142
6,B5,0.0211
7,B6,0.266
8,B7,0.00725
9,B8,0.0376
10,B9,0.0409
11,B10,0.00381
12,B11,0.014
13,B12,0.0228
14,B13,0.0464
15,B14,0.00956
16,B15,0.0128
17,B16,0.36
18,B17,0.0101
19,B18,0.16
20,B19,0.0163
21,B20,0.00361
22,B21,0.00982
23,B22,0.0122
24,B23,0.017
25,B24,0.00889
26,B25,0.0359
27,B26,0.213

row,Binder,Kd [µM]
1,B27,0.0205
2,B28,0.0178
3,B29,0.0103
4,B30,0.00725
5,B31,0.0182
6,B32,0.0253
7,B33,0.0188
8,B34,0.661
9,B35,0.00461
10,B36,0.00744
11,B37,0.0147
12,B38,0.00835
13,B39,0.00995
14,B40,0.233
15,B41,0.00824
16,B42,0.0564
17,B43,0.0133
18,B44,0.00586
19,B45,0.00732
20,B46,0.0122
21,B47,0.0104
22,B48,0.0328
23,UCUCUUUGUUUUAUUCUCUCUU (ssRNA) [Ib_S1_P5E.1_K5.1_C5.1_H5.1_[A4T]_A5.1_F5.1_[A10C]_T5.1],0.899
24,UCUCUUUGUCUUAUUCUCUCUU (ssRNA) [Ib_S1_P5E.1_K5.1_C5.1_H5.1_[A4C]_A5.1_F5.1_[A10C]_T5.1],1.35
25,UCUCUUUGUUUUAUUGUCUCUU (ssRNA) [Ib_S1_P5E.1_K5.1_C5.1_H5.1_[A4T]_A5.1_F5.1_[A10G]_T5.1],0.378
26,UCUCUUUGUCUUAUUGUCUCUU (ssRNA) [Ib_S1_P5E.1_K5.1_C5.1_H5.1_[A4C]_A5.1_F5.1_[A10G]_T5.1],0.84

# From PMC9352680, “A comprehensive thermodynamic model for RNA binding by the Saccharomyces cerevisiae Pumilio protein PUF4”
